# In the supplement of paper PMC10567573:
# B1: OR10K2 (parent)
# chain: SLARLQQLLFVIFLLLYLFTLGTN
# B2: ANKRD40 (parent)
# chain: SLRENDFIEIELDRQELTYQELLR
# Variants of: B1
# Experiment: protein stability index of a GFP-peptide fusion (GPS, HEK-293T) (PSI 1-6); higher = more stable
# Conditions: c terminus: a fixed tail appended
# 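Note: lentivirally expressed fusions sorted by FACS into six bins by GFP to DsRed ratio, PSI derived from sequencing read proportions per bin multiplied by bin number.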
row,Variant,protein stability index
1,SLARLQQLLVVIFLLLYLFTLGTN [F10V],2.29
2,SLARLQQLLQVIFLLLYLFTLGTN [F10Q],2.22
3,SLARLQQLLNVIFLLLYLFTLGTN [F10N],2.18
4,SLARLQQLLGVIFLLLYLFTLGTN [F10G],3.07
5,SLARLQQLLIVIFLLLYLFTLGTN [F10I],4.24
6,SLARLQQLLRVIFLLLYLFTLGTN [F10R],3.34
7,SLARLQQLLFVIFFLLYLFTLGTN [L14F],2.64
8,SLARLQQLLFVIFILLYLFTLGTN [L14I],2.72
9,SLARLQQLLFVIFHLLYLFTLGTN [L14H],2.31
10,SLARLQQLLFVIFGLLYLFTLGTN [L14G],2.6
11,SLARLQQLLFVIFLLLYLFTTGTN [L21T],3.5
12,SLARLQQLLFVIFLLLYLFTCGTN [L21C],3.39
13,SLARLQQLLFVIFLLLYLFTNGTN [L21N],4.16
14,SLARLQQLLFVIFLLLYLFTFGTN [L21F],3.52
15,SLARLQQLLFVIFLLLYLFTVGTN [L21V],2.08
16,SLARLQQLLFVIFLLLYLFTSGTN [L21S],2.34
17,SLARLQQLLFVIFLLLYLFTYGTN [L21Y],1.62
18,SLARLQQLLFVIFLLLYLFTIGTN [L21I],2.08

row,Variant,protein stability index
1,SLARLQQILFVIFLLLYLFTLGTN [L8I],2.4
2,SLARLQQNLFVIFLLLYLFTLGTN [L8N],2.24
3,SLARLQQSLFVIFLLLYLFTLGTN [L8S],2.86
4,SLARLQQPLFVIFLLLYLFTLGTN [L8P],3.32
5,SLARLQQVLFVIFLLLYLFTLGTN [L8V],2.17
6,SLARLQQDLFVIFLLLYLFTLGTN [L8D],2.99
7,SLARLQQALFVIFLLLYLFTLGTN [L8A],1.98
8,SLARLQQWLFVIFLLLYLFTLGTN [L8W],2.53
9,SLARLQQTLFVIFLLLYLFTLGTN [L8T],1.97
10,SLARLQQMLFVIFLLLYLFTLGTN [L8M],3.83
11,SLARLQQGLFVIFLLLYLFTLGTN [L8G],2.92
12,SLARLQQRLFVIFLLLYLFTLGTN [L8R],3.34
13,SLARLQQKLFVIFLLLYLFTLGTN [L8K],3.04
14,SLARLQQELFVIFLLLYLFTLGTN [L8E],1.9
15,SLARLQQYLFVIFLLLYLFTLGTN [L8Y],3.36
16,SLARLQQFLFVIFLLLYLFTLGTN [L8F],2.88
17,SLARLQQCLFVIFLLLYLFTLGTN [L8C],3.24

# Variants of: B2
# Experiment: as above
# Conditions: c terminus: a fixed tail appended
row,Variant,protein stability index
1,SLREVDFIEIELDRQELTYQELLR [N5V],2.4
2,SLREKDFIEIELDRQELTYQELLR [N5K],2.88
3,SLREEDFIEIELDRQELTYQELLR [N5E],2.78
4,SLRENDFIEIGLDRQELTYQELLR [E11G],3.26
5,SLRENDFIEIMLDRQELTYQELLR [E11M],2.41
6,SLRENDFIEICLDRQELTYQELLR [E11C],2.37
7,SYRENDFIEIELDRQELTYQELLR [L2Y],2.68
8,SVRENDFIEIELDRQELTYQELLR [L2V],3.12
9,SERENDFIEIELDRQELTYQELLR [L2E],2.93
10,SPRENDFIEIELDRQELTYQELLR [L2P],3.49
11,SWRENDFIEIELDRQELTYQELLR [L2W],2.73
12,SLRENDFIEIELTRQELTYQELLR [D13T],2.15
13,SLRENDFIEIELQRQELTYQELLR [D13Q],2.93
14,SLRWNDFIEIELDRQELTYQELLR [E4W],2.19
15,SLRMNDFIEIELDRQELTYQELLR [E4M],2.55
16,SLRINDFIEIELDRQELTYQELLR [E4I],2.02
17,SLRENDFIEIELDRQELTIQELLR [Y19I],2.73
18,SLRENDFIEIELDRQELTFQELLR [Y19F],2.31
19,SLRENDFIEIELDRQELTAQELLR [Y19A],4.12
20,SLDENDFIEIELDRQELTYQELLR [R3D],2.9

row,Variant,protein stability index
1,SLRENDFIEIELDRQELTYQPLLR [E21P],2.36
2,SLRENDFIEIELDRQELTYQILLR [E21I],1.9
3,SLRENDFIEIELDRQELTYQKLLR [E21K],2.67
4,SLRENDFIEIELDRQFLTYQELLR [E16F],2.5
5,SLRENDFIEIELDRQHLTYQELLR [E16H],2.89
6,SLRENDFIEIELDRQKLTYQELLR [E16K],2.93
7,SLRENDFIEIELDRQGLTYQELLR [E16G],2.91
8,SLRENDFIEIELDAQELTYQELLR [R14A],2.87
9,SLRENDFIEIELDEQELTYQELLR [R14E],3.37
10,SLRENDFIEIELDIQELTYQELLR [R14I],2.86
11,SLRENDFIEIELDGQELTYQELLR [R14G],3
12,SLRENDFIEIELDRQELTYQESLR [L22S],3.8
13,SLRENDFIEIELDRQELTYQENLR [L22N],3.92
14,SLRENDFIEIELDRQELTYQELLN [R24N],3.49
15,SLRENDFIEIELDRQELTYQELLI [R24I],2.35
16,SLRENDFIEIELDRQELSYQELLR [T18S],3.55
17,SLRENDFIEIELDRQELCYQELLR [T18C],2.46
18,SLRENDFIEIELDRQELTYCELLR [Q20C],2.16
19,SLRENDFIEIELDRQELTYVELLR [Q20V],2.62
20,SLRENDFIEIELDRQELTYHELLR [Q20H],2.76

row,Variant,protein stability index
1,SLRENDFIEIELDRQELTYAELLR [Q20A],2.72
2,SLRENDFIEIELDRQELTYQELDR [L23D],4.25
3,SLRENMFIEIELDRQELTYQELLR [D6M],1.66
4,SLRENDFIEWELDRQELTYQELLR [I10W],3.19
5,SLRENDFIELELDRQELTYQELLR [I10L],3.16
6,SLRENDFIEQELDRQELTYQELLR [I10Q],4.26
7,SLRENDFIEKELDRQELTYQELLR [I10K],3.48
8,SLRENDFIEIELDREELTYQELLR [Q15E],3.28
9,SLRENDFIEIELDRFELTYQELLR [Q15F],2.09
10,SLRENDFIEIELDRLELTYQELLR [Q15L],2.78
11,SLRENDFYEIELDRQELTYQELLR [I8Y],3.28
12,SLRENDFGEIELDRQELTYQELLR [I8G],3.88
13,SLRENDFIEIEQDRQELTYQELLR [L12Q],4.13
14,SLRENDFIEIEFDRQELTYQELLR [L12F],2.73
15,SLRENDKIEIELDRQELTYQELLR [F7K],4.2
16,SLRENDRIEIELDRQELTYQELLR [F7R],3.69
17,SLRENDFIGIELDRQELTYQELLR [E9G],3.33
18,SLRENDFIDIELDRQELTYQELLR [E9D],3.47
19,SLRENDFIEIELDRQEGTYQELLR [L17G],3.3
